The nanobody polyreactivity screen of Harvey et al. (2022)

Assay: yeast display, Sf9 membrane polyspecificity reagent, FACS + sequencing; frameworks hold sequencing errors
How it was run: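 Galactose induction of a Saccharomyces cerevisiae BJ5465 synthetic nanobody display library ran 36–48 hours. The cells were then stained for 1 hour at 4 °C with 10% biotinylated, detergent-solubilized Sf9 membrane reagent, pulled down on streptavidin microbeads and FACS-sorted into low and high (top ~1%) gates on expression and reagent-binding fluorescence. Labels for polyreactivity follow the gate of origin.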

Row | Sequence | polyreactivity (PSR sort gate)
1 | QVQLVESGGGLVQAGGRLRLSCAASGFTFYRYPMGWYRQAPGTERELVAAITWSGGSTYYADSVKGRFTISRDTAMNTVYLQMNSLKPEDTAVYYCAADIYDGGFDYWGQGTQVTVSS | low polyreactivity
2 | QVQLVESGGGLVQAGGSLRLSCAASGSIFYKNAMGWYRQAPGKERELVAAISSSGGSTRYADSVKGRFTISRDNSKNTVSLQMNSLKPEDTAVYYCAASGSRTSRGYWGQGTQVTVSS | high polyreactivity
3 | QVQLVESGGGLVQAGGSLRLICAASGSIFRYYAMGWYRQAPGKERELVAVITRSSSTYYADSVKGRFTISRDNAKNTVYLQMNSLKPEDTAVYDCAARYRSGAAGYNYWGQGTQVTVSS | high polyreactivity
4 | QVQLVESGGGLVQAGGILRLSCAASGRTFSVNAMGWYRQAPGKERELVAAITRRGGSTYYADSVKGRFTISRDYAKNTVYLQMKSLKPEDTAVYYCAAEFVTYYSSSKRAYYYWGQGTQVTVSS | high polyreactivity
5 | QVQLVESGGGLVQAGGSLRLSCAASGSTFGGYAMGWYRQAPGKERELVAAITSRGGSTYYADSVKGRFTISRDNAKNTVYLQMNSLKPEDTAVYYCATGLPKRDRRARIRYEYWGQGTQVTVSS | low polyreactivity
6 | QVQLVESGGGLVQAGGSLRLSCAASGSIFYGYAMGWYRQAPGKERELVAVITDGGGSTYYADSVKGRFTISRDNAMNTVYLQMNSLKPEDTAVYYCNRVFPPTDYEFDSWGQGTQLTVSS | low polyreactivity
7 | QVQLVESGGGLVQAGGSLRLSCAASGSTFEAYAMGWDRQAPGKERELVAAISYSGSSTYYADSVKGRFTISRDNAMNSVYLQMHRLKPEDTALTYCAARASKGRRMGYWGQGTQVTVSS | low polyreactivity
8 | QVKLVESGGGLVQAGGSLRLSCAASGLIFQKYAMGWYRQPPGKERELVAAISGGGRTYYADSVKGRFTISRDNSKNTVYLQMNSMKPEDTAVYYCAVYWYYLGYYYYYDFDYWGQGTQVTVSS | high polyreactivity
9 | QVQLVESGGGLVQAGGSLRLSCAASGSILGVYTMGWYRQAPGKERELVARIRLSGGSTYYADSVKGRFTISRDNAKNTVYLQMNSLIPEDTAVYYCAARYSRARFTDPYYYWGQGTQVTVSS | high polyreactivity
10 | QVQLVESGGGLVQAGGSLRLSCAASGIFDPNAMGWYRQAPGKERELVAAITSGGSTNYADSVKGRFTISRDNAKNTVYLQMNSLKPVDTAVYYCNADSYDEIKYGYWGQGTQVTVSS | low polyreactivity
11 | QVQLVESGGGLVQAGGSLRLSCAASGSIFSIYAMGWYRQAPGKERELVATIRVSGDRTYYADSVKGRFTISRDNAKNTVYLQMNSLKPEDTAVYYCAADFRGFYSWNFYYWGQGTQVTVSS | high polyreactivity
12 | QGQLVESGGGLVQAGGSLRLSCAASGRIFNRNAMGWYRQAPGKERELVAAITRGGRTNYADSVKGRFTISRDNAQNTVYLQMNSLKPEDTAVYYCAAAYYGSHGRYDYWGQGTQVTVSS | high polyreactivity
13 | QVQLVESGGGLVQAGGSLRLSCAASGSIFASYAMGWYRQAPGKESELVAAITYSGSRTYYADSVKGRFTISRYNAKNTVYLQMNSMKPEDTAVYYCNADYYWYPYEDDYWGQGSQVTVSS | low polyreactivity
14 | QVQLVESGGGLVQAGGSLRLSCAASGSIFVTNTMGWYRQAPGKERELVAAITYSGGSTYYADSVKGRFTISRDNAKNNVYLQMNSLKPEDTAVYYCAARRARYHVEYYYWGQGTQVTVSS | high polyreactivity
15 | QVQLVESGGGLVQAGGSLRLSCAASGFIFVDYAMGWYRQAPGKERELVASIDRSDGSTYYADSVKGRFTISRDNAKKTVYLQMNSLKPEDTAVYYCAADDPLYSISTGDYWGQGTQVTVSL | low polyreactivity
16 | QVQHVESGGGLVQAGGSLRLSCAASGSTIQNNAMGWYRQPPGKERELVAAMNNGGSTNYADSVKGRFTISRDNAKNTVYLQMNSLIPEDSAGYYCNTDRHHADYQWGWPSAFEEFGYWGLGTQVTVSS | low polyreactivity

Row | Sequence | polyreactivity (PSR sort gate)
17 | QVQLVESGGGLVQAGGSLRLSCAASGRIFDSYAMGSYRQAPGKERELVAVISNNDGTTYYADSVKGRFTISRDNEKNTVYLQMNSLKPEDTAVYYCAAEEPLFGYLWYVVTYAGIYDYWGQGSQVTVSS | low polyreactivity
18 | QVQLVESGGGLVQAGGSLRLSCAASGRTFSKNTMGWYRKAPGKERELVASITRRGGSTYYADSVKGRFTISRDNAKNTVYLQMKSLKPEDTAVYYCAVRWRDYRGSYRGFEYWGQGTQVTVSS | high polyreactivity
19 | QVQLVESGGVLVQAGGSLRLSCAASGRIFDRNAMGWYRQAPGKERELVAAIDDSGGDTSYADSVKGRFTISRDNAKNTVYLQMNSLKPEDTAVYYCNAGYADFVTYPRYYYWGQGTQVTVSS | low polyreactivity
20 | QVQLVESGGGLVQAGGSLRLSCAASGRIFYYYTMGWYRQAPGKERELVARINSSGSTNLRRLCEGALHNFTRQCEEYRLFTDEQPETGRYRVYYCNADTKRSSREYDYWGQGTQVTVSS | low polyreactivity
21 | PVQLVVSGGGLVQAGGSLRLSWAASGLIFRYYAMGWYRQAPGKERELVATIRGGGSTYYADSVKGRFTISRDKAKNTVTLQMNSLKPEATAVDYSAADPYSYGARGARGDYWGQGTQGTVSS | low polyreactivity
22 | QVQLVESGGGLVQAGGSLRLSCAASGSTFSYNAMGWYRQAPGKVRELVASINSRGGTTYYADSVKGRFTISRDNAKNTVYLQMNSRKPEDTAVYYCATDVYRLGEYDYWGQGTQVTVSS | low polyreactivity
23 | QVHLVESGGGLVQAGGSLRISCAASGSTFVYYAMGWYRQAPGTERELVAAISVSGDSTYYADSVKGRFTISRDNAKNTVYLQMNSLKPEDTAVYYCATEVYWTVSYYGYDYYGGNYYYWGQGTQVTVSS | low polyreactivity
24 | QVQLVESGGGLVQAGGSLRLSCAASGRIFNRNAMVWSRQAPGKERELVASISSGGRTNYADSVKGRFTISRDNAKNTVYLQMNSLKPEDTAVYYCAAKSPRILLDYWGQGTQVTVSS | low polyreactivity
25 | QVQLVESGGGLVQAGGSLRLSCAASGCTFPRYAMGWYRQAPGKERELVAAISYSGGRTYYADSVKGRFTISRDNAKNTVYLQMNSLKPEDTAVYYCATEASTKRYDYWGQGTQVTVSS | high polyreactivity
26 | QVQLVESVGCLVQAGGSLRLSCASTGRTFTPYAMGWYRHRPGKESEFVPAIDTSGGSTYADSVKGRFTISRDNANNTVYLQMNSLKPEDTAVYYCATRGFYSWSYWYLWEYDYWGQGTQVTVSS | low polyreactivity
27 | QVPLVESGGGLVQAGGILRLSCAASGRIFLPYAMGWYRQAPGQERELVAAITSSDGSTHYADSVKGRFTISRDNAQNTVYLQMNSLKPEDTAVYYCNAARATYYYYLDDYWGQGTQVTVSS | low polyreactivity
28 | QVQLVESGGGLVQAGGSLRLSCAASGSIFIGYAMGWYRQAPGKERELVAAISNSGGRTYYADSVKGRFTISRDNAKNTVYLQMNSLKPEDTAVYYCAAEERYAYRYDYSGQGTQVTVSS | high polyreactivity
29 | QVQLVESGGGLVQAGGSLRLSCPASGSNFGVYAMAWYRQAPGKERELVAAITSSGGSTYYADSVKGRFTISRDNAKNTVYFQMNSLKPEDTAVYYCSKDSFSHSHYTRYGYWGQGSQVTVSS | low polyreactivity
30 | HVQLVESGGGLVQAGGSLRLSCAASGGTFTKYAMGWFRQAPGTEMELVAAISWRGTSTYYADSVKGRFTISRDNAKNTVYLQLYSLKPEDTAVHYCLPWVGYGRYKPGYKYDYWGQGTQVTVSS | high polyreactivity
31 | QVQLVESGGGLVQAGGSLRLSCAASGFTFRINAMGWYRQAPGKERELVAAISWSGGSTYYADSVKGRFTISRDNAKNTVYLQMNSLKPEDTAFYYCNKVQSSRYRSQRTFQYGYWGQGTQVTVSS | high polyreactivity
